This is an account of results in patent US20180155451A1 (published 2018).

The target in experiment [1] is T1, FcγRIa extracellular domain with C-terminal His tag (human, UniProt P12314 16-292).
T1 construct: extracellular domain; Expressed in FreeStyle293 cells; analyte in the Biacore assay; also called FcgRI; 1a; not shown: His tag at the C terminus
In words: SPR (Biacore), antibody captured on antigen-peptide chip, FcγR as analyte; relative binding. (In general: In SPR one partner is held on a chip, and binding of the other changes the refractive index at the surface.)
T1 sequence (P12314 16-292): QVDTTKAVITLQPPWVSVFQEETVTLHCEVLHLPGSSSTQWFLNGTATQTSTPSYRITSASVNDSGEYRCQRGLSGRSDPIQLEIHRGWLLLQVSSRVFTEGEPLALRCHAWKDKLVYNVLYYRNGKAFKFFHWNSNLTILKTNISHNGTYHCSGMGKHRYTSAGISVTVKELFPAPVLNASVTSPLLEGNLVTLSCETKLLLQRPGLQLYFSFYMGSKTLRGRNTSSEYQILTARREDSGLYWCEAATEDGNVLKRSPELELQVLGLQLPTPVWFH

Experiment [2] concerns the target T2, FcγRIIb extracellular domain with C-terminal His tag (human, UniProt P31994 43-217).
T2 construct: extracellular domain; Expressed in FreeStyle293 cells; analyte in the Biacore assay; also called FcgRIIb; 2b; not shown: His tag at the C terminus
T2 sequence (looked up): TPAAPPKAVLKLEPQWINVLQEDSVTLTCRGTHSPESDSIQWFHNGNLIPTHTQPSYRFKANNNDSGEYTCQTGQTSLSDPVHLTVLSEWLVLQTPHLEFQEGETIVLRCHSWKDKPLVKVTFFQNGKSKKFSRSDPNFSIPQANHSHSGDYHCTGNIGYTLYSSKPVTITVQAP
The experiment is described as above.

Experiment [3] deals with T3, FcγRIIb extracellular domain with C-terminal His tag (human, UniProt P31994 43-217).
T3 construct: extracellular domain; Soluble receptor expressed in FreeStyle293 cells and used as analyte in Biacore; also called FcgRIIb; 2b; not shown: His tag at the C terminus
T3 sequence (looked up): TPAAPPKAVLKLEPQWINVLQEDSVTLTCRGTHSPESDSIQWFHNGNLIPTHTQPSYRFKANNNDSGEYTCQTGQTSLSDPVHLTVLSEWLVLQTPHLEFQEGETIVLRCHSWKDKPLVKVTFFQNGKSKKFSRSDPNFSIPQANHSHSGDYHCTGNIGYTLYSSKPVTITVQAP
Description: SPR Biacore, relative binding amount.

The target of experiment [4] is T4, FcγRIa extracellular domain with C-terminal His tag (human, UniProt P12314 16-292).
T4 construct: extracellular domain; Soluble receptor expressed in FreeStyle293 cells and used as analyte in Biacore; also called FcgRI; 1a; not shown: His tag at the C terminus
In words: SPR Biacore, relative binding amount.
T4 sequence (P12314 16-292): as the sequence (P12314 16-292) above

B1: GpH7-A5/GpH7-B3 variant Y300_08L/GpL16-k0 (He Ab) (antibody, human IgG1, kappa)
heavy 1: not shown
heavy 2: not shown
light: DIVMTQSPLSLPVTPGEPASISCQASESLVHSNRNTYLHWYLQKPGQSPQLLIYKVSNRFSGVPDRFSGSGSGTDFTLKISRVEAEDVGVYYCSQNTHVPPTFGQGTKVEIERTVAAPSVFIFPPSDEQLKSGTASVVCLLNNFYPREAKVQWKVDNALQSGNSQESVTEQDSKDSTYSLSSTLTLSKADYEKHKVYACEVTHQGLSSPVTKSFNRGEC
notes: Heterodimerized anti-glypican-3 IgG1; the mutation stands in the GpH7-B3 chain only
B1: the He/Con_1a in experiment [1] is 113 % of GpH7-A5/GpH7-B3/GpL16-k0 (=100). Also, the He/Con_2b in experiment [2] was 73.6 % of GpH7-A5/GpH7-B3/GpL16-k0 (=100).

B2: GpH7-A5/GpH7-B3 variant Y300_13S/GpL16-k0 (He Ab) (antibody, human IgG1, kappa)
heavy 1: not shown
heavy 2: not shown
light: DIVMTQSPLSLPVTPGEPASISCQASESLVHSNRNTYLHWYLQKPGQSPQLLIYKVSNRFSGVPDRFSGSGSGTDFTLKISRVEAEDVGVYYCSQNTHVPPTFGQGTKVEIERTVAAPSVFIFPPSDEQLKSGTASVVCLLNNFYPREAKVQWKVDNALQSGNSQESVTEQDSKDSTYSLSSTLTLSKADYEKHKVYACEVTHQGLSSPVTKSFNRGEC
notes: as for B1
With B2, the He/Con_1a in experiment [1] is 111 % of GpH7-A5/GpH7-B3/GpL16-k0 (=100). Moreover, the He/Con_2b in experiment [2] is 53.9 % of GpH7-A5/GpH7-B3/GpL16-k0 (=100).

B3: GpH7-A5/GpH7-B3 variant Y300_09D/GpL16-k0 (He Ab) (antibody, human IgG1, kappa)
heavy 1: not shown
heavy 2: not shown
light: DIVMTQSPLSLPVTPGEPASISCQASESLVHSNRNTYLHWYLQKPGQSPQLLIYKVSNRFSGVPDRFSGSGSGTDFTLKISRVEAEDVGVYYCSQNTHVPPTFGQGTKVEIERTVAAPSVFIFPPSDEQLKSGTASVVCLLNNFYPREAKVQWKVDNALQSGNSQESVTEQDSKDSTYSLSSTLTLSKADYEKHKVYACEVTHQGLSSPVTKSFNRGEC
notes: as for B1
Consider B3, for which the He/Con_1a in experiment [1] was 112 % of GpH7-A5/GpH7-B3/GpL16-k0 (=100). Besides, the He/Con_2b in experiment [2] is 93.2 % of GpH7-A5/GpH7-B3/GpL16-k0 (=100).

B4: heterodimerized antibody GpH7-A5/GpH7-B3 variant E333_11K/GpL16-k0 (antibody, human IgG1, kappa)
heavy 1: not shown
heavy 2: not shown
light: DIVMTQSPLSLPVTPGEPASISCQASESLVHSNRNTYLHWYLQKPGQSPQLLIYKVSNRFSGVPDRFSGSGSGTDFTLKISRVEAEDVGVYYCSQNTHVPPTFGQGTKVEIERTVAAPSVFIFPPSDEQLKSGTASVVCLLNNFYPREAKVQWKVDNALQSGNSQESVTEQDSKDSTYSLSSTLTLSKADYEKHKVYACEVTHQGLSSPVTKSFNRGEC
notes: Substitution in only one H chain (GpH7-B3 side); also called He Ab
In the case of B4, the He/Con_2b in experiment [3] was 80.6 % of GpH7-A5/GpH7-B3/GpL16-k0 (=100). The He/Con_1a in experiment [4] was 102 % of GpH7-A5/GpH7-B3/GpL16-k0 (=100).

B5: GpH7-A5/GpH7-B3 variant Y300_14T/GpL16-k0 (He Ab) (antibody, human IgG1, kappa)
heavy 1: not shown
heavy 2: not shown
light: DIVMTQSPLSLPVTPGEPASISCQASESLVHSNRNTYLHWYLQKPGQSPQLLIYKVSNRFSGVPDRFSGSGSGTDFTLKISRVEAEDVGVYYCSQNTHVPPTFGQGTKVEIERTVAAPSVFIFPPSDEQLKSGTASVVCLLNNFYPREAKVQWKVDNALQSGNSQESVTEQDSKDSTYSLSSTLTLSKADYEKHKVYACEVTHQGLSSPVTKSFNRGEC
notes: as for B1
As for B5, the He/Con_1a in experiment [1] was 112 % of GpH7-A5/GpH7-B3/GpL16-k0 (=100). For the same molecule, the He/Con_2b in experiment [2] was 55.6 % of GpH7-A5/GpH7-B3/GpL16-k0 (=100).

B6: heterodimerized antibody GpH7-A5/GpH7-B3 variant I336_01G/GpL16-k0 (antibody, human IgG1, kappa)
heavy 1: not shown
heavy 2: not shown
light: DIVMTQSPLSLPVTPGEPASISCQASESLVHSNRNTYLHWYLQKPGQSPQLLIYKVSNRFSGVPDRFSGSGSGTDFTLKISRVEAEDVGVYYCSQNTHVPPTFGQGTKVEIERTVAAPSVFIFPPSDEQLKSGTASVVCLLNNFYPREAKVQWKVDNALQSGNSQESVTEQDSKDSTYSLSSTLTLSKADYEKHKVYACEVTHQGLSSPVTKSFNRGEC
notes: as for B4
Turning to B6, the He/Con_2b in experiment [3] is 90.1 % of GpH7-A5/GpH7-B3/GpL16-k0 (=100). The He/Con_1a in experiment [4] was 109 % of GpH7-A5/GpH7-B3/GpL16-k0 (=100).

B7: heterodimerized antibody GpH7-A5/GpH7-B3 variant E333_16H/GpL16-k0 (antibody, human IgG1, kappa)
heavy 1: not shown
heavy 2: not shown
light: DIVMTQSPLSLPVTPGEPASISCQASESLVHSNRNTYLHWYLQKPGQSPQLLIYKVSNRFSGVPDRFSGSGSGTDFTLKISRVEAEDVGVYYCSQNTHVPPTFGQGTKVEIERTVAAPSVFIFPPSDEQLKSGTASVVCLLNNFYPREAKVQWKVDNALQSGNSQESVTEQDSKDSTYSLSSTLTLSKADYEKHKVYACEVTHQGLSSPVTKSFNRGEC
notes: as for B4
For the molecule B7, the He/Con_2b in experiment [3] was 83.3 % of GpH7-A5/GpH7-B3/GpL16-k0 (=100). The He/Con_1a in experiment [4] was 101 % of GpH7-A5/GpH7-B3/GpL16-k0 (=100).

B8: GpH7-A5/GpH7-B3 variant Y300_12R/GpL16-k0 (He Ab) (antibody, human IgG1, kappa)
heavy 1: not shown
heavy 2: not shown
light: DIVMTQSPLSLPVTPGEPASISCQASESLVHSNRNTYLHWYLQKPGQSPQLLIYKVSNRFSGVPDRFSGSGSGTDFTLKISRVEAEDVGVYYCSQNTHVPPTFGQGTKVEIERTVAAPSVFIFPPSDEQLKSGTASVVCLLNNFYPREAKVQWKVDNALQSGNSQESVTEQDSKDSTYSLSSTLTLSKADYEKHKVYACEVTHQGLSSPVTKSFNRGEC
notes: as for B1
For B8, the He/Con_1a in experiment [1] is 105 % of GpH7-A5/GpH7-B3/GpL16-k0 (=100). Also, the He/Con_2b in experiment [2] is 41.2 % of GpH7-A5/GpH7-B3/GpL16-k0 (=100).

B9: GpH7-A5/GpH7-B3 variant Y300_16H/GpL16-k0 (He Ab) (antibody, human IgG1, kappa)
heavy 1: not shown
heavy 2: not shown
light: DIVMTQSPLSLPVTPGEPASISCQASESLVHSNRNTYLHWYLQKPGQSPQLLIYKVSNRFSGVPDRFSGSGSGTDFTLKISRVEAEDVGVYYCSQNTHVPPTFGQGTKVEIERTVAAPSVFIFPPSDEQLKSGTASVVCLLNNFYPREAKVQWKVDNALQSGNSQESVTEQDSKDSTYSLSSTLTLSKADYEKHKVYACEVTHQGLSSPVTKSFNRGEC
notes: as for B1
On to B9, for which the He/Con_1a in experiment [1] is 111 % of GpH7-A5/GpH7-B3/GpL16-k0 (=100). In addition, the He/Con_2b in experiment [2] was 87 % of GpH7-A5/GpH7-B3/GpL16-k0 (=100).
